Numbering of substitutions follows the chain as printed.
B1: AS170036 VL1VH1 HG56A (scFv)
scFv: QSALTQPRSVSGSPGQSVTISCAGTSSDVGSENYVSWYQQHPGKAPKLMIYQVNKRASGVPDRFSGSKSGNTASLTISGLQAEDEADYYCASYRSSDHNIVFGGGTKLTVLGGGGSGGGGSGGGGSEVQLVESGGGLVQPGGSLRLSCAASGFTFSSYAMSWVRQAPGKGLEWVSTINSGTASPYYADSVKGRFTISRDNSKNTLYLQMNSLRAEDTAVYYCAKNFFDGSWFLGPPAMDYWGQGTLVTVSSHHHHHH
B2: AS170036 VL1VH1 HD102A (scFv)
scFv: B1 scFv with A182G, D228A
B3: AS170036 VL1VH1 HD102E (scFv)
scFv: B1 scFv with A182G, D228E
B4: AS170036 VL1VH1 HD102G (scFv)
scFv: B1 scFv with A182G, D228G
B5: AS170036 VL1VH1 HD102I (scFv)
scFv: B1 scFv with A182G, D228I
B6: AS170036 VL1VH1 HD102L (scFv)
scFv: B1 scFv with A182G, D228L
B7: AS170036 VL1VH1 HD102M (scFv)
scFv: B1 scFv with A182G, D228M
B8: AS170036 VL1VH1 HD102N (scFv)
scFv: B1 scFv with A182G, D228N
B9: AS170036 VL1VH1 HD102P (scFv)
scFv: B1 scFv with A182G, D228P
B10: AS170036 VL1VH1 HD102Q (scFv)
scFv: B1 scFv with A182G, D228Q
B11: AS170036 VL1VH1 HD102S (scFv)
scFv: B1 scFv with A182G, D228S
B12: AS170036 VL1VH1 HD102T (scFv)
scFv: B1 scFv with A182G, D228T
B13: AS170036 VL1VH1 HD102V (scFv)
scFv: B1 scFv with A182G, D228V
B14: AS170036 VL1VH1 HD102W (scFv)
scFv: B1 scFv with A182G, D228W
B15: AS170036 VL1VH1 HF101D (scFv)
scFv: B1 scFv with A182G, F227D
B16: AS170036 VL1VH1 HF101H (scFv)
scFv: B1 scFv with A182G, F227H
B17: AS170036 VL1VH1 HF101N (scFv)
scFv: B1 scFv with A182G, F227N
B18: AS170036 VL1VH1 HF101W (scFv)
scFv: B1 scFv with A182G, F227W
B19: AS170036 VL1VH1 HF101Y (scFv)
scFv: B1 scFv with A182G, F227Y
B20: AS170036 VL1VH1 HF106W (scFv)
scFv: B1 scFv with A182G, F232W
B21: AS170036 VL1VH1 HG56D (scFv)
scFv: B1 scFv with A182D
B22: AS170036 VL1VH1 HG56E (scFv)
scFv: B1 scFv with A182E
B23: AS170036 VL1VH1 HG56H (scFv)
scFv: B1 scFv with A182H
B24: AS170036 VL1VH1 HG56I (scFv)
scFv: B1 scFv with A182I
B25: AS170036 VL1VH1 HG56K (scFv)
scFv: B1 scFv with A182K
B26: AS170036 VL1VH1 HG56L (scFv)
scFv: B1 scFv with A182L
B27: AS170036 VL1VH1 HG56M (scFv)
scFv: B1 scFv with A182M
B28: AS170036 VL1VH1 HG56P (scFv)
scFv: B1 scFv with A182P
B29: AS170036 VL1VH1 HG56Q (scFv)
scFv: B1 scFv with A182Q
B30: AS170036 VL1VH1 HG56R (scFv)
scFv: B1 scFv with A182R
B31: AS170036 VL1VH1 HG56S (scFv)
scFv: B1 scFv with A182S
B32: AS170036 VL1VH1 HG56T (scFv)
scFv: B1 scFv with A182T
B33: AS170036 VL1VH1 HG56V (scFv)
scFv: B1 scFv with A182V
B34: AS170036 VL1VH1 HG56W (scFv)
scFv: B1 scFv with A182W
B35: AS170036 VL1VH1 HG108F (scFv)
scFv: B1 scFv with A182G, G234F
B36: AS170036 VL1VH1 HG108H (scFv)
scFv: B1 scFv with A182G, G234H
B37: AS170036 VL1VH1 HG108I (scFv)
scFv: B1 scFv with A182G, G234I
B38: AS170036 VL1VH1 HG108L (scFv)
scFv: B1 scFv with A182G, G234L
B39: AS170036 VL1VH1 HG108Q (scFv)
scFv: B1 scFv with A182G, G234Q
B40: AS170036 VL1VH1 HG108R (scFv)
scFv: B1 scFv with A182G, G234R
B41: AS170036 VL1VH1 HG108T (scFv)
scFv: B1 scFv with A182G, G234T
B42: AS170036 VL1VH1 HG108V (scFv)
scFv: B1 scFv with A182G, G234V
B43: AS170036 VL1VH1 HG108W (scFv)
scFv: B1 scFv with A182G, G234W
B44: AS170036 VL1VH1 HG108Y (scFv)
scFv: B1 scFv with A182G, G234Y
B45: AS170036 VL1VH1 HL107A (scFv)
scFv: B1 scFv with A182G, L233A
B46: AS170036 VL1VH1 HL107G (scFv)
scFv: B1 scFv with A182G, L233G
B47: AS170036 VL1VH1 HL107I (scFv)
scFv: B1 scFv with A182G, L233I
B48: AS170036 VL1VH1 HL107M (scFv)
scFv: B1 scFv with A182G, L233M
B49: AS170036 VL1VH1 HL107N (scFv)
scFv: B1 scFv with A182G, L233N
B50: AS170036 VL1VH1-57M98I108S (scFv)
scFv: B1 scFv with H98I, A182G, S183M, G234S
notes: also called 81-AS170036 VL1VH1-57M98I108S

Each binder was assayed against T1, AFP158/HLA-A*02:01 complex (human) (assay: SPR; vs AS170036 VL1VH1;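 note: crude scFv captured on sensor chip, peptide–HLA complex flowed over at several concentrations, KD estimated from association and dissociation kinetic rates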).
T1 construct: biotinylated on the BSP by BirA for ELISA and panning; also called biotinylated AFP158/HLA-A*02:01 complex; Bio-AFP158
Protocol: The experiment was carried out as follows. The crude scFv protein were captured onto the sensorchip. Different concentrations (320, 160, 40 nM) of AFP158/HLA-A*02:01 complex flowed over the sensorchip surface, and were allowed to bind the antibody fragment for 100 s followed by injection of the running buffer to allow dissociation of the complex. On-rate (kd) and off-rate (kd) were calculated based on association and dissociation curve, and were used to estimate the equilibrium dissociation constant (KD).

| Binder | Affinity increase [fold] |
| --- | --- |
| B1 | 1.4 |
| B2 | 0.4 |
| B3 | 1.2 |
| B4 | 0.1 |
| B5 | 0.1 |
| B6 | 0.1 |
| B7 | 0.3 |
| B8 | 0.1 |
| B9 | 0.3 |
| B10 | 0.2 |
| B11 | 0.4 |
| B12 | 0.1 |
| B13 | 0.1 |
| B14 | 0.1 |
| B15 | 0.2 |
| B16 | 0.3 |
| B17 | 0.1 |
| B18 | 0.8 |
| B19 | 1.1 |
| B20 | 0.4 |
| B21 | 1 |
| B22 | 1 |
| B23 | 1.5 |
| B24 | 0.2 |
| B25 | 0.7 |

| Binder | Affinity increase [fold] |
| --- | --- |
| B26 | 0.8 |
| B27 | 1.7 |
| B28 | 0.1 |
| B29 | 1 |
| B30 | 0.8 |
| B31 | 1.5 |
| B32 | 0.7 |
| B33 | 0.4 |
| B34 | 1.7 |
| B35 | 0.3 |
| B36 | 0.4 |
| B37 | 0.2 |
| B38 | 1.4 |
| B39 | 1.4 |
| B40 | 0.2 |
| B41 | 0.5 |
| B42 | 0.7 |
| B43 | 0.1 |
| B44 | 0.2 |
| B45 | 0.1 |
| B46 | 0.1 |
| B47 | 1.1 |
| B48 | 0.7 |
| B49 | 0.5 |

Each binder was assayed against T1, AFP158/HLA-A*02:01 complex (assay: SPR, crude scFv captured;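 note: Peptide–MHC complex flowed at several concentrations over sensorchip-captured scFv, Kd derived from on- and off-rates obtained from the association and dissociation curves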).

| Binder | Kd [nM] |
| --- | --- |
| B1 | 160 |
| B2 | 590 |
| B3 | 190 |
| B4 | 2500 |
| B5 | 1900 |
| B6 | 1700 |
| B7 | 840 |
| B8 | 2500 |
| B9 | 880 |
| B10 | 950 |
| B11 | 520 |
| B12 | 1800 |
| B13 | 1800 |
| B14 | 2200 |
| B15 | 1400 |
| B16 | 830 |
| B17 | 3700 |
| B18 | 300 |
| B19 | 210 |
| B20 | 630 |
| B21 | 230 |
| B22 | 240 |
| B23 | 150 |
| B24 | 1100 |
| B25 | 350 |

| Binder | Kd [nM] |
| --- | --- |
| B26 | 290 |
| B27 | 130 |
| B28 | 1600 |
| B29 | 240 |
| B30 | 300 |
| B31 | 160 |
| B32 | 340 |
| B33 | 630 |
| B34 | 130 |
| B35 | 810 |
| B36 | 660 |
| B37 | 1000 |
| B38 | 200 |
| B39 | 200 |
| B40 | 1500 |
| B41 | 530 |
| B42 | 370 |
| B43 | 2300 |
| B44 | 1100 |
| B45 | 3300 |
| B46 | 4400 |
| B47 | 240 |
| B48 | 370 |
| B49 | 530 |

The binders below were run against T2, AFP158/HLA-A*02:01 complex (human) (assay: SPR, crude scFv captured, pMHC analyte;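 note: complex injected at several concentrations over the chip, association phase then running buffer for dissociation, KD derived from on- and off-rates computed from both curves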).
T2 construct: flowed as analyte in SPR

| Binder | Kd [nM] | koff [s⁻¹] | kon [M⁻¹ s⁻¹] |
| --- | --- | --- | --- |
| B50 | 21 | 0.0035 | 170000 |
